Source: IntAct's records for PubMed 15105431

B1: T-cell surface antigen CD2 (Homo sapiens), P06729 (parent)
chain: MSFPCKFVASFLLIFNVSSKGAVSKEITNALETWGALGQDINLDIPSFQMSDDIDDIKWEKTSDKKKIAQFRKEKETFKEKDTYKLFKNGTLKIKHLKTDDQDIYKVSIYDTKGKNVLEKIFDLKIQERVSKPKISWTCINTTLTCEVMNGTDPELNLYQDGKHLKLSQRVITHKWTTSLSAKFKCTAGNKVSKESSVEPVSCPEKGLDIYLIIGICGGGSLLMVFVALLVFYITKRKKQRSRRNDEELETRAHRVATEERGRKPHQIPASTPQNPATSQHPPPPPGHRSQAPSHRPPPPGHRVQHQPQKRPPAPSGTQVHQQKGPPLPRPRVQPKPPHGAAENSLSPSSN
partner: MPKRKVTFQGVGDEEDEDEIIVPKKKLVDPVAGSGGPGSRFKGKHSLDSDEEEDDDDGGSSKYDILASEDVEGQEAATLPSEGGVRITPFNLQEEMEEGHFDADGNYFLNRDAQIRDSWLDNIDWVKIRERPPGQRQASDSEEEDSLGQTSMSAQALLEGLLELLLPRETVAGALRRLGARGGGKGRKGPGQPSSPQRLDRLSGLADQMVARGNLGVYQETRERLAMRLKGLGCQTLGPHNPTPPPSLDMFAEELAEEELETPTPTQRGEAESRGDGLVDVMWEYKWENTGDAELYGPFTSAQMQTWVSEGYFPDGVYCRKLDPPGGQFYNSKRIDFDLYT

Variants of: B1
Conditions: with cd2b2_human CD2BP2, O95400

Effect of a mutation on the interaction, by site and new letter:
P300: V disrupting interaction strength, M decreasing interaction strength, N decreasing interaction strength, Y decreasing interaction strength, C decreasing interaction strength, S disrupting interaction strength, K decreasing interaction strength, E disrupting interaction strength, L decreasing interaction strength, D disrupting interaction strength, Q decreasing interaction strength, W decreasing interaction strength, H decreasing interaction strength, R decreasing interaction strength, A disrupting interaction strength, F decreasing interaction strength, T disrupting interaction strength, I decreasing interaction strength
P299: D disrupting interaction strength, R disrupting interaction strength, E disrupting interaction strength, I decreasing interaction strength, N decreasing interaction strength, V disrupting interaction strength, H decreasing interaction strength, F decreasing interaction strength, Y disrupting interaction strength, C decreasing interaction strength, K decreasing interaction strength, T disrupting interaction strength, L disrupting interaction strength, Q disrupting interaction strength, A disrupting interaction strength
S294: D decreasing interaction strength, E decreasing interaction strength
H295: D decreasing interaction strength, E decreasing interaction strength
V304: C decreasing interaction strength, D decreasing interaction strength, W decreasing interaction strength, E decreasing interaction strength
G301: N decreasing interaction strength, T disrupting interaction strength, V disrupting interaction strength, F decreasing interaction strength, P decreasing interaction strength, I decreasing interaction strength, H decreasing interaction strength, S decreasing interaction strength, M disrupting interaction strength, Q decreasing interaction strength, K decreasing interaction strength, A disrupting interaction strength, Y decreasing interaction strength
R303: A disrupting interaction strength, L decreasing interaction strength, H decreasing interaction strength, M decreasing interaction strength, S disrupting interaction strength, E disrupting interaction strength, I decreasing interaction strength, C disrupting interaction strength, V disrupting interaction strength, W disrupting interaction strength, D disrupting interaction strength, T disrupting interaction strength, G disrupting interaction strength, Q decreasing interaction strength, P decreasing interaction strength, F decreasing interaction strength, N decreasing interaction strength, Y disrupting interaction strength
P298: D disrupting interaction strength, M disrupting interaction strength, E disrupting interaction strength, N disrupting interaction strength, H decreasing interaction strength
R296: D disrupting interaction strength, A decreasing interaction strength, L decreasing interaction strength, M decreasing interaction strength, E disrupting interaction strength, C decreasing interaction strength
H302: E decreasing interaction strength, D decreasing interaction strength
